Laboratory results taken from paper PMC9926306.

Target: ABCA1 (mouse (endogenous in J774)) (UniProt P41233)
UniProt P41233, sequence (P41233 whole entry): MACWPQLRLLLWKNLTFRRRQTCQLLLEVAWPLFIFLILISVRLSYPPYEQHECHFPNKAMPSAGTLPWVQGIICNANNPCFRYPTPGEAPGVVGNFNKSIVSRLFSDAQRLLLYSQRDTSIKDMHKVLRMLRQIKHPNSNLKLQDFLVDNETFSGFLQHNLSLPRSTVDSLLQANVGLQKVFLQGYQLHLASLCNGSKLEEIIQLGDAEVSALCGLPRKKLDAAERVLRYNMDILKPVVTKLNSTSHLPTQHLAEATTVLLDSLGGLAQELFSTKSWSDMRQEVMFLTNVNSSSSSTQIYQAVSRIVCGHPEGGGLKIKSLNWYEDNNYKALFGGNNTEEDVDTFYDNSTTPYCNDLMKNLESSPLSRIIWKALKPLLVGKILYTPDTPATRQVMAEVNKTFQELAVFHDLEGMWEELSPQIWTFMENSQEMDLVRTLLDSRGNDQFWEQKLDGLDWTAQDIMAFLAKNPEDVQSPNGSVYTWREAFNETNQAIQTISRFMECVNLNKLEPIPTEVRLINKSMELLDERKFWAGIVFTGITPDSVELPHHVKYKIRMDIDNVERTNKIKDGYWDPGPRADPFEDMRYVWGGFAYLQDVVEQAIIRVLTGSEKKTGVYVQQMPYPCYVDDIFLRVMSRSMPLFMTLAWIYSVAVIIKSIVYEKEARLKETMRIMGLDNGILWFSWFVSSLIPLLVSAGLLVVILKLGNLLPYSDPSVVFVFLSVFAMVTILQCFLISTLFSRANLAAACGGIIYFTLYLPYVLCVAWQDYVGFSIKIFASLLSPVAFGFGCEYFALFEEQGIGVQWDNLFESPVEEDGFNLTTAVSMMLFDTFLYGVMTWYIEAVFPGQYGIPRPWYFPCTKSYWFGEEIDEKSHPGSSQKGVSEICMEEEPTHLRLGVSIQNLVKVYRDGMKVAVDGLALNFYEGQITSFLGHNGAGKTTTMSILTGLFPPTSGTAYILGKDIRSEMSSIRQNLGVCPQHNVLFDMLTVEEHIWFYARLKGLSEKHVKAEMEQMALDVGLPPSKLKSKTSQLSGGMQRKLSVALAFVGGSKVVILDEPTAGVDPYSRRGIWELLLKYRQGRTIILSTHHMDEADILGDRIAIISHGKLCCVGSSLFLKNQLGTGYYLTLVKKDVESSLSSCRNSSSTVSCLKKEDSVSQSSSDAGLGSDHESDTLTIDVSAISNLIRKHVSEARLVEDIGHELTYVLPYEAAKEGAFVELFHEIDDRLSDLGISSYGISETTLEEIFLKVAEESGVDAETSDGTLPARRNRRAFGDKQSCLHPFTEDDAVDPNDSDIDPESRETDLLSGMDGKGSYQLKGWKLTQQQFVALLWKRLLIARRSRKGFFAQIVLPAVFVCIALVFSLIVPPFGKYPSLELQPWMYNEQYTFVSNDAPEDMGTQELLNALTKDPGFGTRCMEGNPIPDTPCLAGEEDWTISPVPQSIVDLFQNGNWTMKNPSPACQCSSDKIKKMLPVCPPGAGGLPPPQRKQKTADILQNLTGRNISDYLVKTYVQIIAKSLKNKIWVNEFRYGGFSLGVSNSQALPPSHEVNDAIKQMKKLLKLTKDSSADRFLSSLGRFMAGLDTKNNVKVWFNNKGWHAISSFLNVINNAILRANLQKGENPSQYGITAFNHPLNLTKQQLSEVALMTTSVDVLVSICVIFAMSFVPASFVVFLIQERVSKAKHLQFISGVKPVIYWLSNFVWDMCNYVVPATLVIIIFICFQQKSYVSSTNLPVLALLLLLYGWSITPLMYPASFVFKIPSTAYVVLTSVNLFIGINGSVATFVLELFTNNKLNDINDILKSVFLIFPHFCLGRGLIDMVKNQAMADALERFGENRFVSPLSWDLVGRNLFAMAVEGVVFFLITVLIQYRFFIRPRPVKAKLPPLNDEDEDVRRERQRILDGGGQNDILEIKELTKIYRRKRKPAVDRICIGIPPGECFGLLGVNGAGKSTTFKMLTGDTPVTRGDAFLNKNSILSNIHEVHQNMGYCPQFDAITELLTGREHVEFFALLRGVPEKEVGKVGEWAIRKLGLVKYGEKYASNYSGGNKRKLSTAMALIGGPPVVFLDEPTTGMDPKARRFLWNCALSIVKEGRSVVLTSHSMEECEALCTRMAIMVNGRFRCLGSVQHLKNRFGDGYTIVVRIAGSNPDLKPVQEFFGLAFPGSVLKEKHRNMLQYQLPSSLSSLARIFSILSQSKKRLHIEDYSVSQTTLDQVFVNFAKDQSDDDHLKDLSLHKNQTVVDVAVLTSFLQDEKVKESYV

percent BODIPY-cholesterol efflux from J774 cells treated with cAMP (ABCA1 upregulated), apoA-I 10 ug/ml, 6 and 24 h; value after 24 h	Substance
28.7%	WT apoA-I (from UniProt P02647 19-267) (natural protein)
27.9%	apoA-I[K107del] (natural protein)
